Results: patent US20170267750A1, “Method of Treating Ovarian and Renal Cancer Using Antibodies Against T Cell Immunoglobulin Domain and Mucin Domain 1 (TIM-1) Antigen” (Celldex Therapeutics, Inc., priority 2005, published 2017)

Experiments:
[1] = target: TIM-1 (T cell, immunoglobulin domain and mucin domain 1), cell membrane-bound (human) (UniProt Q96D42); assay: cell-based or functional assay
[2] = target: TIM-1 antigen, soluble extracellular domain of TIM-1 (CG57008-02) with a V5-HIS tag (human) (UniProt Q96D42); assay: BIAcore 2000, 25 C, mAb captured on goat anti-human surface, TIM-1 antigen injected at 292 nM
Chain of TIM-1 antigen, soluble extracellular domain of TIM-1 (CG57008-02) with a V5-HIS tag (human) (Q96D42 other isoform, or with tags, fused parts or gaps): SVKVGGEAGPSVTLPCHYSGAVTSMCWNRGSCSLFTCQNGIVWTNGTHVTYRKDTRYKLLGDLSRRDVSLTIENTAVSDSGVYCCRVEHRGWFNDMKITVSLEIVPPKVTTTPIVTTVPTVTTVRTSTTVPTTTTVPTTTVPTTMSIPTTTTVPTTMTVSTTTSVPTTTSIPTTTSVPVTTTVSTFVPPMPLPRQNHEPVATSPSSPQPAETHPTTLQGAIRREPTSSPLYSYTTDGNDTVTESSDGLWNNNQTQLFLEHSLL

Chain of TIM-1 (T cell, immunoglobulin domain and mucin domain 1), cell membrane-bound (human) (Q96D42 21-364): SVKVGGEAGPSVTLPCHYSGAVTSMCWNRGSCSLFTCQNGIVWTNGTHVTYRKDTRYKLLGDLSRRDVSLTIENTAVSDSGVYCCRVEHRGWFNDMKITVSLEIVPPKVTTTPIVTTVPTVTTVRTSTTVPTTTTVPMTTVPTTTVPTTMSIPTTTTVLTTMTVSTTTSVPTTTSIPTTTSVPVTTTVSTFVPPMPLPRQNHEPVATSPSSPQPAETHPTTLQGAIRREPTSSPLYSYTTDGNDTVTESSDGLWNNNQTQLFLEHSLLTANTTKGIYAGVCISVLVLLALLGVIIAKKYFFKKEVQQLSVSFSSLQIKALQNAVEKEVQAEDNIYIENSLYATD

B1: Auristatin E (AE)-conjugated anti-TIM-1 mAb 2.70.2 (antibody, human IgG4, kappa, V domains shown)
VH: QVQLVESGGGVVQPGRSLRLSCAASGFIFSRYGMHWVRQAPGKGLKWVAVIWYDGSNKLYADSVKGRFTISRDNSKNTLYLQMNSLRAEDTAVYYCARDYYDNSRHHWGFDYWGQGTLVTVSS
VL: DIVMTQTPLSLPVTPGEPASISCRSSRSLLDSDDGNTYLDWYLQKPGQSPQLLIYTLSYRASGVPDRFSGSGSGTDFTLKISRVEAEDVGVYYCMQRVEFPITFGQGTRLEIKR
Question: With B1 as the binder, how does the CAKI-1 cell death, clonogenic assay with AE-conjugated antibody, maximum dose [1] read?
Answer: > 90%

B2: anti-TIM-1 monoclonal antibody 2.54 (antibody, V domains shown)
VH: QVQLEQSGGGVVQPGRSLRLSCAASGFTFTNYGLHWVRQAPGKGLDWVAVIWYDGSHKFYADSVKGRFTISRDNSKNTLFLQMNSLRAEDTAVYYCTRDLDYWGQGTLVTVSS
VL: ETQLTQSPGTLSLSPGERVTLSCRASQSVSNNYLAWYQQKPGQAPRLLIYGASSRATGIPDRFSGSGSGTDFTLTISRLEPEDCAECYCQQYGSSLPLTFGGGTKVEIKR
Question: With B2 as the binder, how does the Kd [2] read?
Answer: 3.35 nM

B3: Auristatin E (AE)-conjugated anti-TIM-1 mAb 2.59.2 (antibody, V domains shown)
VH: NNNNNQSGPRLVKPSQTLSLTCTVSGGSISSDGYYWSWIRQHPGKGLEWIGYIYYSGSTFYNPSLKSRVAISVDTSKNQFSLKLSSVTAADTAVYYCARESPHSSNWYSGFDCWGQGTLVTVSS
VL: NNNNTQSPDFQSVTPKEKVTITCRASQSIGSRLHWYQQKPDQSPKLLIKYASQSFSGVPSRFSGSGSGTDFTLTINSLEAEDAATYYCHQSSNLPFTFGPGTKVDIKR
Question: With B3 as the binder, how does the CAKI-1 cell death, clonogenic assay with AE-conjugated antibody, maximum dose [1] read?
Answer: > 90%
